In the NTF2 design screens of Basanta et al. (2020):

Assay: protease stability score; higher = more stable; yeast display proteolysis, trypsin and chymotrypsin;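 further: log10 excess protease needed over predicted unfolded state with 0 meaning unfolded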

Sequence	protease stability score
DEDAKRSLNELWKAIQQGDPDRIRELIDKNVRLRYGEKRIHGRDQAAKFWHDLHDHARFKVRDVSIKIHNGRADVRMRMTIHINGEPLDVTVIYKIEFHNGQAVRIELEVDEDQLRKQRK	0.845
DEDAKRVANEISKAFDQNDPDKARQLADENAEVQIGDKVLHGRDQATNQLERQREEQNEHVDSVEIDVDGDKLKVRIHFNSHSNGRPRRNTRTYTIVVRNGHLQHLDMKENG	-0.246
DEDALDLLEKAARAYQTGDPDQLMRNLDEDAKVDVGDKKIRGRNDARRHLQELKDKIELHLHVTEMSVQGNKVHAHFKLHSDQNGKPYHTDVEMRADVHNGRVKRMEIRTTK	-0.159
DEDALDQVEEMMRNNNEQEIADRADKDVEVEYGDHELHGREDMQDWAEKWQQQVDHLEVKSVHKKGDHFKMKLRAVFNGQEYTFVMVVEVHNGKIKNIKYDATSKEVKEIQKEVLK	-0.163
DEDALKQMHENLENIKEGDPDKIKKMFDENARVEVGDKVLNGRDQASKFWSELRDQINIHIRDVKLSVSGEEVTINIDARFTHNGQPQTSIFRIEAELHNGTIKSLRVKLDG	2.02
DEDALRKFKEFLEIKREGDERRLLELFDENVKIVVGDTELEGMTEAARDITRKRKEMRVEQRYDRFHVQGEHIRARARFTVKFNGRPHTNENTFRVVLRNGHYKSYELKIDPDELRKLDS	-0.083
DEDALRNWEQFIRNYKHGDETELQKLVDPNVHVRIGDREIHGREKLREHWRRQKEHARVDINVRSLEDQGSKVQVTFKMQYQVNGQPKHNSMRMEFTVRNGRIVEASYQFDPDEHRKLQS	1.23
DEDALRVFDKLVKAWKNNDEDKMKKLMDPNVKVEYGDKQVHGMDEYLHSMVTRQRQIRVHFRVKDIKTRPGRVVANYEVEEENDGKPHHTKVRVTLKVHNGRVKQAEYDVKP	0.017
DEDALTRIEDAAKHMNEGNFERYADMADPNAHVNIGDKTYQGRESLKHLMQEQRERWEFKLDVRRVDQDGEKAVVTAKVNQKHNGKPDTKTVYIYVSWKNGRAQEIEVRQDS	0.319
DEDALTRLREFDDNVRKGNKHRLQDLMDPNVKVRYGDTEIKGREHVAKELKKLVDTMHIEIDYKSMSAEGNHATLTAEVVVQVNGRPIKFRMHVQVQFENGKIKELVYRFSEDAQKKMDG	1.53
DEDAMKRFKDLLRAQETGDEHRIRELVDPNAQFVIGDRKITGREEYVRIFREERENMHIDLEVKSVSVKGNKLTIHLTFKVDHNGKPMRASAQIQVKIRNGRIQEVQYDFDEDQLRKLKR	0.32
DEDANDVVRKYIEAVNTGDPDQVNELVDPNVRVEVGDKTLSGHEEIRKEQQERTKQSRVEIEVKQMKVHGDNIILYAVVRYNHNGKPSSRHVKMTFSAHNGHFKHIRVHDDQ	0.809
DEDANENIRKQLEWEEKGNPQQAKKQADPNAQFNIGDHTFNGMDEYMHWVKRELTHLRIEIKDVKFDVQGEKIEIDVRFVVDENGRPKEDRQDFDVTMHNGHIHNINVDKIS	-0.21
DEDANHRFKDQVRAIKTGDSKRVEELVDPNVHNHVGEWRVHGSTHWATLAKQVRDEMRVDLDIKSVENSGNKLNIDANVIIDHNGKPHRNQVNWNVNNHNGRIQEASAKKSN	-0.484
DEDANKVMKKVVEAIKEGDPDTIRKLVDPNARVNVGDTTVNGREEFARQNHEKMNQSRIHYLSMDFEQREGHAVVTVRFEKHHNGKPDTDRYRATANFKNGKLTEYKQKEDG	-0.291
DEDANNTAKEMLENIDEGNEKRWSELMDENATFNVGDKTYHGRENAEHLFRERKDEMRIEIDLHKVEVSGDHVVLDITVVKEHNGKPRRVDVQVEFRIHNGRMQEFVQDEHG	0.245
DEDANRELHKAMKHNDWDLLAKQMDKDVSKQVGDKTVHGRDRIQEDIKRLKTEIDHMEIEHVSARGDHLTADVHLVVNGQHVKFVIHIQFDNGRIKQIQWQVRDEDVEKQMKKLKG	-0.074
DEDANRKAEEFAQNLRENDEDRLQQLVDPNARLNVGEFSVHGRTELTHQLRRVTREMRVEVQIRDIRVQNGHAHLDIEVVIDHNGKPSSRVLRMVVDFRNGKIQNLDVRTDQ	0.601
DEDANRKAREYAHAREHGDPRHAREYADPNAEFTVGDKSFHGMQEDVERMERERKEMRVEIKDVQVSAHDGRLTLDLRFVKDNNGQPREVRQNVQFNIENGRATEIDVQETK	-0.214
DEDANRLVEEYIRAVEKGDEDQARRMMDENVTVKVGDKTVHGHDHQAREMNKVKKQARIEIKDYRLDNSNGRVVIRMTFIADRNGKPITFDIVIIINFHNGRAKNMHVHISEEELKRLEG	1.06
DEDANRRLRRLIEQIHENDPDKIDEMFDPNARVDIGDHTVHGREQLRQTVKREAKEIRIRIERLDVRVKGDKATVEMHFVRKNNGEPRSNRVVVTARIRNGKIESMKQTEDG	0.763
DEDAQELAEQLWTAWETGDPRQIQNLMDPNVNFRYGDKTFQGREHLHRLIKDIQENIRIDYRHYSVDVKGDKASIKINIQLHHDGKPETKTNDLTIHFSGDRIQRVEQNDRQ	0.248
DEDAQKQVEKMLQAVREGDDRQIKRLFDPNAEINVGDKHVTGREQATKEMSKRKKEMDIDIKIEEVQVKGDRVELKAVVLENKNGDPQTFHVRAVYHAHNGKIRTNNVEKDG	-0.074
DEDAQKRAEEMMHALQNGDEKQIQTLFDKDAKVNVGDKEYHGKEQLAHDLKRRHDKIRVDYKDVHIRAHGDKVSLTFRVRVKINGVPADNSFQFTLKFRNGHVQSMSQQFDPKYEQDQRN	-0.033
DEDAQKTVRKFLENITTGNPENAEKLLDPNVHIHYGDKRVSGRDQFHREAKQKLHDMRLSIDIKEVQVQGNRIDVDVRFSVNHNGRPYTITAHLSIEMSNGHIEHMELRIDESDKRRQKR	-0.237

Sequence	protease stability score
DEDAQRQVEELLKAEHEGDPKKFQELADPNVNAIYGDKRVHGRETLADQLAERVREMRVHYDSIDLRVRGNKVNVHINAKFKYNGVPIEISMTVVFVFHNGRLQRREVSIPEEVQTELTR	0.129
DEDAQTQVEKMLKNMQRGDNQEVNKMFDKNVEFRVGDRDIHGREEYARQVSREHKESRVEFRHIHARVKGDHVRIRVDVVRQVNGKPQRMTVEFEVQAHNGKIKRFQVEFDPDEERRVQK	0.196
DEDARKLAEELLKAQETGDPKTLKRLVDPNVKVDVGDKTFHGMDEINEEVTRTKRRQRVKIDRVSIHVRGDSVVIHVTEKNEKDGQPSSRQYVQEMRVTNGHVVEMKQNKSR	-0.468
DEDARKQAQRWITNLNNGNEKEVSKQFDPNARMDVGNRDVHGTEQLLQKLRTRLKQARQSIELRDIDRQGDNLQLDVRMEFVHNGQPDDVRFTVQMNYHNGKIKRANWRIPEEDQKKLER	0.165
DEDARRKVEEFMDLMRNNNPEELAKLADPNATVHYGDKVVHGREQAMEWWKKFLTELRVDIKSVSIRVSGNKIDVEVDMIVQVNGRPVTLNWRFSFNFNNGKIEQIHVHISEEQQERIHS	0.68
DEDARRRVHEFFEAIENNDREKLKELADPNVQANYGDKQVRGREQLAEWVDKLHKELRVHFRLKSLDNRGDKIEIRMRVILDINGRPQTQDVTMEMRFHNGRIKHVQVHVDERQLKQKKK	0.942
DEDARSNFQELLKALQTGDERLFEKNVDPNVTFRYGDKTLTGRHHIMEQLRRDKENSRQDFDVKEWHFHGNRIDVKAQLRFEKNGKPDTVDVNLVAIAHNGRIQEIQIDVQK	-0.278
DEDASKELQRLARENDFKRIAELADENASAQIGDNVWHGREKILTNLKRMQDQVDHQRIHSIRTHGNKLRVTVRMVVNGRDFTFRFVIEVENGRVVSIDIKATSEKDKKKMNEVIG	-0.158
DEDASKQVEDFERALKTGDENRLHELMDKDARVEVGDKRYHGRKQIARQQVQHYEEMRVDLHVQDIDVQGDKIKVDVTRQIEVNGKPISNRIIIYVTIHNGKIQRMDVDVPDEDMDKIEK	0.769
DEDASRHVRDMIRALQTGDRDKVARYIDPNATMQVGDKRYHGNERIKEQVKRTKDTMRYHMEIKDVHVEGDHIKVDFTFSNNKNGTPTSDRAQIDIRMTNGHATSIVLHNNK	-0.001
DEDASRRMIEMVENLQTGNEEEFKKYVDPNVRIEYGDKRVSGRDQATKWWRSEFTEIRFSMRVQSYSVDGNKVDITVRATFDHNGKPEDKKYKLDIQLHNGHIKKLEITDDS	1.31
DEDATDNVRQWFEARNQNDENRLMQLVDPNAKIQVGDKFVHGKEDLEKQVKREKDQIHLHMKDMKFTDTGDTVKVRIDYRDEHNGRPKEDRMVAYATVHNGRIENLEVDSDR	-0.179
DEDAVKAYERLLTAWNHGDPDQAKHQVDPNVRVQVGDKQIHGREELARQIERRRREANIHNQLEDYRDNGEEIQLHVEVTEDHNGNPDTKTYTAYAQFTNGKMQELTINDHG	-0.219
DEDAVKLAQEVWKAMHTGDEDKFVKLVDPNARVKIGDKDIHGKDDIKKQLHNRNREIRVRLKHIEIDQNGDQARIHMRFQMTHDGQPRDQSATATMRAQGDKLKSISVTNHG	-0.206
DEDAVKLFHNVQHVIEQGDKDKAVKNFDPNASAKVGDKEVHGMEDWVRTLVKEASQLRIDLKWDDYRVHGDKINMNIELNKEHNGHPSTTRMHIDAHVHNGRVKFVAYNRRP	0.066
DEDAVKSASNAAQHGDFVRMAEEMRDNPEARYGDKDVRGREEVIRVVRILMEQVDSVKVKRVRVHGEKVTADLKFRVNGREFHANAVVVMDNGRFVKLVLHFTDSDFKHELHKRLE	1.17
DEDAVKVAEKFVEVEETGSEDDFKRLADKDAKIRVGENHVHGRESLLDELRKRRKQINIVIHHVRAEDRGDKVDVEIEAVDERNGKPNQYNVKFKVKMHNGRVKQIDRDRDR	0.168
DEDAVNRYEEFVENLKSNNEHKLSEYLDPNVRLVIGDKTLHGKDNFRRRVRHMTKHMRLQLNYKDLKVQGEEIHVHADVRQTHDGKPQNTHFSASMRVNGDKAKEITIKDDG	0.207
DEDAVRKAIELFKQQETGNPEEVKKLADPNARMVVGDKTFTGMDTINEHLRKLRKEARIRNDIKRYEVNGDKATIEFRQERDHNGRPDTHLVKITIKVTNGRVKVIEIQDKS	0.175
DEDAVRKAKQWVKALRDGDEDELREQVDPNARINVGDKTFHGMDEFVKDVLKTHSEQRVNFDIKSVNASNGRVDMKMDATFDINGEPKTFSLVLTVDFHNGRAKQLEVKFDPKVKEDLTK	0.769
DEDAVRLAHKFQDVLNKGDPDKAMRLADPNARVQIGDTEIRGREQLSHHVNEMSNSIRFDLKHVDAQTRGDHVDVRVDQINEVDGRPTRNTDKMTIQIKNGKIVNVNVRVDEDRKQQERD	-0.632
DEDAVRNASTMVEAERRGDENTIQKMMDKHATVKYGDTEVHGREDAARQIRKTHREIRIQVDHYTVEAHNGRVRVEIRVVVNVNGTPYEYHYDYYAEVHNGKFKHIEINVDPDLEDKLKK	-0.16
DEDAVRRVKDMIRNLKSGNPDDAARYADPNARFDIGDWHIDGRKQLVKKLRDITRHMRYKFEMRSVDVTGNKLKFKATAHVSVNGRPITYHMTASIIVHNGHVTHVDQQLPEELLKRIEQ	0.785
DEDAVRVMETYMKIYETGNPEELNRLVDPNVKFNIGDQRIKGREHARKFWRKILQHSRVELRRLDVHTRPNRVEARAEVVVNHNGKPKNFQFTFSAHLHNGRIKEVTIKHSK	1.34
DEDAYRKLDTFKKVEEKGDTDRLRKLADPNVEIQVGDRQIRGMHHFAKDVHDKKRHIDIDVHIDEYDVDGNKIQIHAHNKQHVNGKPFNFTVVMWVRIHNGSIKKMKYRIDPDQLRKIRR	0.227
